Laboratory results published in patent US9383360B2, “Compositions and methods relating to lyme disease” (The United States of America, as represented by the …, priority 2012, dated 2016).

Legend:
Settings in all cases: SDS-PAGE, FIG. 5
[1] = biological target: T1, Brevican (Homo sapiens, UniProt Q96GW7); assay: BbHtrA proteolysis assay, brevican substrate; type: biochemical
T1 sequence (Q96GW7 23-911): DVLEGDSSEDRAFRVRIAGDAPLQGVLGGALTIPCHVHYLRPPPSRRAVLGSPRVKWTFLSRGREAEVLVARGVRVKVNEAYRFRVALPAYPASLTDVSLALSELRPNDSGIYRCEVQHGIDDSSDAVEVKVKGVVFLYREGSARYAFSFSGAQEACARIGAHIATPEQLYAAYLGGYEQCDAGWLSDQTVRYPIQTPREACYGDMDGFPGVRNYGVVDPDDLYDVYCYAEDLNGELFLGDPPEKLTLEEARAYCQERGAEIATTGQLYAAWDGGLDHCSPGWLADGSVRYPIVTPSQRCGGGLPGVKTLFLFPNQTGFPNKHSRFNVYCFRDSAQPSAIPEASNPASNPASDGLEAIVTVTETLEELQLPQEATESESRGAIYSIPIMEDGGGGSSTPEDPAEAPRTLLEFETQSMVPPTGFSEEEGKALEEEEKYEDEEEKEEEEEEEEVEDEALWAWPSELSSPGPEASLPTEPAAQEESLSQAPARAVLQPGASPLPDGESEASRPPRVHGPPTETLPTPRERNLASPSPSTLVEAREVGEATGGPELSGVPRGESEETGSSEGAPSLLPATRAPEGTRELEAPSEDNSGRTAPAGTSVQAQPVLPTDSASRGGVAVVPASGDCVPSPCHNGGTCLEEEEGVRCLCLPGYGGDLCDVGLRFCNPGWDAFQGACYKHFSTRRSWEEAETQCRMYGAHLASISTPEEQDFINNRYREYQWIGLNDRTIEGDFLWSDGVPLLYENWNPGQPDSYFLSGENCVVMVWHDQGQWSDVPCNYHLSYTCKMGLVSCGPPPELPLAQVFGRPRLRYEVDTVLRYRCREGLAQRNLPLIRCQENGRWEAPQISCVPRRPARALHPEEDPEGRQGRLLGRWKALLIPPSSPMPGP
Experimental: (§1) For proteolysis assays described in Examples herein, purified protein substrates (200-600 nM) and proteases (100-150 nM) were diluted in assay buffer (50 mM HEPES, pH 7.4, 5 mM CaCl2) and incubated overnight at 37° C. Samples were boiled for 4 minutes to inactivate the proteases. Proteoglycans were deglycosylated by overnight incubation at 37° C. with 0.01 U chondroitinase ABC (Seikagaku). Reactions were stopped by the addition of SDS/PAGE sample buffer, boiled for 4 minutes, and electrophoresed on pre-cast Tris-glycine gels (BioRad). Reaction products were visualized by silver staining.
(§2) Purified proteins were incubated with BbHtrA or BbHtrA^S226A as described herein. HtrA (also known as DegP) proteases belong to the family of serine proteases which contain a highly reactive serine residue in their active site. This serine (Ser210 in DegP) is part of the canonical His-Ser-Asp catalytic triad and mutation of the catalytic serine abolishes proteolytic activity (Skorko-Glonek et al., 1995). In BbHtrA, residues His119, Ser226 and Asp149 form the catalytic triad and mutation of serine 226 to alanine abolished proteolytic activity as expected (FIG. 5).
(§3) Reaction products were separated by SDS-PAGE and silver stained. Native collagen II and recombinant tenascin C were not degraded by BbHtrA indicating selectivity for proteoglycans, E-cadherin and fibronectin. […]

[2] = test system: Casein; assay: BbHtrA proteolysis assay, casein substrate; type: biochemical, bovine
Experimental: as §1, §2, §3

[3] = biological target: T2, E-cadherin (Homo sapiens, UniProt P12830); assay: BbHtrA proteolysis assay, E-cadherin substrate; type: biochemical
T2 sequence (P12830 155-882): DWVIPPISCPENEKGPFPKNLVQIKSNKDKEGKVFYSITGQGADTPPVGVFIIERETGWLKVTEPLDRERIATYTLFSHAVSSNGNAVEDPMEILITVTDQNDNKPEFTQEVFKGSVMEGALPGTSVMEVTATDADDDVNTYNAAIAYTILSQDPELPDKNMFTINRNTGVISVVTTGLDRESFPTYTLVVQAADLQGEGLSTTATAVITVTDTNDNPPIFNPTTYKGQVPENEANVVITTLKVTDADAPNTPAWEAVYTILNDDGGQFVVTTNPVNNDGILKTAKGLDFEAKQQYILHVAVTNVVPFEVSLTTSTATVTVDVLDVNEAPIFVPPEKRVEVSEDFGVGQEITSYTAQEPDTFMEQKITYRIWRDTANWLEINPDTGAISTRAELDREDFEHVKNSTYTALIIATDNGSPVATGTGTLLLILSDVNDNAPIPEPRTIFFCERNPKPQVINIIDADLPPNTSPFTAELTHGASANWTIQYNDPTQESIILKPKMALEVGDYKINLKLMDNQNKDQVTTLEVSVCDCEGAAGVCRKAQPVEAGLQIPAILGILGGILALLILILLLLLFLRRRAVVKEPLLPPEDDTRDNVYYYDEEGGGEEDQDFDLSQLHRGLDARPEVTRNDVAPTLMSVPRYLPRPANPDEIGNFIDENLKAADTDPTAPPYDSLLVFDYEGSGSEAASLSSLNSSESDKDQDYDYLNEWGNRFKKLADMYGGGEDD
Experimental: as §1, §2, §3

B1: BbHtrA: Recombinant wild type B. burgdorferi HtrA serine protease, mature protein amino acids 38-474, expressed in E. coli (SEQ ID NO:1, 9) (protein, listed as Borrelia burgdorferi)
chain: EEKDNTVRALQDSFREVSKKILPSSVEVHATGVIKQSFPIPFFFFDMPEFDSERKSNWAGSGVIIGRDSQKKSLFYVVTNSHVVDKATELEVVSYDKKKHKAKLIGKDEKKDIALISFESDDATIKVADLGDSDKLEIGDWVMAVGSPFQFSFTVTAGIVSGLQRSANPNLQSRNLFIQTDAAINRGNSGGPLVNIKGEVIGINAWIASNSGGNIGLGFAIPVNNIKSTVDFFLKGKKIESAWLGISFYPLKTRDSEVLKSLGVESNDVSAAIIASLYPGSPAVKSGLRAGDIIMKVNGVSMSVFQDVTSYISDFYAGEKVNVEILRGNVKKNIEIVLAVRPKDKELSSSKMLPGFVVYPLVEDIKAQLNLRNWIKGVVVDYIDKNLASNIKMKSGDVILSVNSKSVSNLREFYDALEVGKNTYKILRGNDSFKITF
degrades: Degradation of brevican [1] | Degradation of casein [2] | Degradation of E-cadherin [3]
